The values that follow come from patent US20100047226.

Data set [1] relates to T1, ZaTa peptide (PKAc fragment flanking Thr-197).
T1 sequence: AKRVKGRTWTLCGTPEY

The subject of data set [2] is T2, control peptide (adjacent overlapping PKAc peptide).
T2 sequence: GFAKRVKGRTWTL

Data set [3] concerns full-length, active PKAc (purified).
For data set [4], the target named is active AKT1 (purified, Upstate Biotechnology) (UniProt P31749).
Data set [5] deals with active AKT1 mutant with a Ser473Asp mutation (UniProt P31749).
For data set [6], the target named is active AKT1 mutant with a deletion in the PH domain (UniProt P31749).
active AKT1 mutant with a deletion in the PH domain, sequence (P31749 whole entry, looked up, stated change not applied, the tested form may be a part): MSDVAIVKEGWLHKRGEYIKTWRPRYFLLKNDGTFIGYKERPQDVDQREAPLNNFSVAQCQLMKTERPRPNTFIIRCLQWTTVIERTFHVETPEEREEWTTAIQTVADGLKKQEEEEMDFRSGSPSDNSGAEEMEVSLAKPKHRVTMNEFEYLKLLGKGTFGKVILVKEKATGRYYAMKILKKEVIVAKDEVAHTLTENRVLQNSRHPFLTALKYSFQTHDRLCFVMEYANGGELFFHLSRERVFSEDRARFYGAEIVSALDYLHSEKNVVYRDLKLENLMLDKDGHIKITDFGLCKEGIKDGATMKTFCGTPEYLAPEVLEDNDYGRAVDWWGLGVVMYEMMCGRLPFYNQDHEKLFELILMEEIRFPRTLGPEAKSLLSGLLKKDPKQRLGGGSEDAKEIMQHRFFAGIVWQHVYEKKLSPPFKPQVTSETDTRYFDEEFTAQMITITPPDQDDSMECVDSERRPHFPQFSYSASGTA

active AKT1 (purified, Upstate Biotechnology), sequence (P31749 whole entry, looked up): as the sequence (P31749 whole entry, looked up, stated change not applied, the tested form may be a part) above
active AKT1 mutant with a Ser473Asp mutation, sequence (P31749 whole entry S473D, the tested form may be a part): as the sequence (P31749 whole entry, looked up, stated change not applied, the tested form may be a part) above, with S473D counted along it

For the substance “active AKT1 (purified, Upstate Biotechnology)”, in data set [1], the “IC-50 of AKT1 catalytic activity (32P incorporation, CPM)” value was “IC-50 of the ZaTa peptide was within a nanomolar range in these assays”; the “IC-50 of AKT1 in vitro catalytic activity (32P incorporation into Ser-21 GSK-3 substrate peptide)” value is “IC-50 ˜0.1 µM”; the “phosphorylation of Ser-9 GSK-3 GST substrate in the AKT1 kinase assay (western blot)” value was “The phosphorylation level of Ser-9 GSK-3 GST substrate was significantly reduced after adding the ZaTa peptide to the AKT1 kinase assay”; the “phosphorylation of ZaTa by AKT (control kinase reactions with peptide and AKT only)” value is listed as “ZaTa peptide itself was not a substrate for AKT”. Besides, in data set [2], the “AKT1 in vitro catalytic activity (32P incorporation into Ser-21 GSK-3 substrate peptide)” value is “the adjacent overlapping peptide was not able to inhibit AKT1”. Further, in data set [3], the “PKA kinase activity in vitro (phosphorylation of DARPP-32 at Thr-34)” value was “addition of the active AKT to the PKA kinase assay increased the catalytic activity of PKAc” and the “phosphorylation level of PKAc at Thr-197 in vitro” value is recorded as “the increase in the PKAc catalytic activity was accompanied by an increase in the phosphorylation level of PKAc at Thr-197”.

Turning to active PKAc purified from bovine tissue, the “AKT kinase activity in vitro” value in data set [4] is “the same inhibitory effect was observed with active PKAc purified from bovine tissue”.

For full-length, active PKAc (purified), the “AKT kinase activity in vitro (Ser-9 GSK-3 GST fusion protein as substrate)” value in data set [4] is listed as “the kinetic activity of AKT was dramatically reduced”. For the same substance, the “AKT kinase activity in vitro” value in data set [5] is “The decrease in the catalytic activity of AKT by PKAc was also observed with two mutants and active forms of AKT1 ... the other one with a Ser473Asp mutation”; in data set [6], “The decrease in the catalytic activity of AKT by PKAc was also observed with two mutants and active forms of AKT1, one with a deletion in the PH domain”.

For the substance human PKAc expressed in Sf9 cells, in data set [4], the “AKT kinase activity in vitro” value is “the same inhibitory effect was observed ... with human PKAc expressed in Sf9 cells”.
